Data taken from patent publication US20100197582A1.

Biological target: human GHR stably expressed in human 293 cells (human) (UniProt P10912)
Assay: cell-based or functional assay

Sequence of UniProt P10912 (P10912 19-638): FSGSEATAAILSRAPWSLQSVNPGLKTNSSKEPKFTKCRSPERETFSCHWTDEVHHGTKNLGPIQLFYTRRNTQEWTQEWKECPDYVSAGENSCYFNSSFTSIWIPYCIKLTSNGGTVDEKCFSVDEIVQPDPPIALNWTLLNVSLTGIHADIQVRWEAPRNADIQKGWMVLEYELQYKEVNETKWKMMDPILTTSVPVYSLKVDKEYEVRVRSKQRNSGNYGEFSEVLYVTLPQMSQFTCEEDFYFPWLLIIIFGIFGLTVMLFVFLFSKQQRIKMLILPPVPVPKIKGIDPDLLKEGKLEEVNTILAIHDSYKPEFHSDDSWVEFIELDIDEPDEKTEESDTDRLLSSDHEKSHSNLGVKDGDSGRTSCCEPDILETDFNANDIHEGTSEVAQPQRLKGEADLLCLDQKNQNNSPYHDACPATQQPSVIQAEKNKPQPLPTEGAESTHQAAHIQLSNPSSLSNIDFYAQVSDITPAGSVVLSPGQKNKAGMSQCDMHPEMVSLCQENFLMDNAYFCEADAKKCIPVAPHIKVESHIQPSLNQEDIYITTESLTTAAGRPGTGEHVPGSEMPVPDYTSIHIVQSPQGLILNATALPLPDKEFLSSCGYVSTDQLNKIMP

bioactivity in GH-specific luciferase reporter assay (Stat 5 luciferase reporter), relative to GH: 10%
concentration giving maximal response, Stat 5 luciferase-reporter assay: 50 to 250 nM
Substance: LR-fusion (human GH linked to the A & B domains of the GHR extracellular domain, exGHR1-238, via a (Gly4Ser)4 linker) (from UniProt P01241 27-217; P10912 1-238)
